Experimental data published in article PMC5604967, “Defining the molecular basis of interaction between R3 receptor-type protein tyrosine phosphatases and VE-cadherin” (PLoS ONE, 2017).

B1: bJun BiFC construct (domain or fragment, UniProt P05412 257-318, looked up)
chain: RKRMRNRIAASKCRKRKLERIARLEEKVKTLKAQNSELASTANMLREQVAQLKQKVMNHVNS
notes: transcription factor Jun, the construct called bJun

Key:
[1] = target: VE-cadherin-VC (VE-cadherin ectodomain and transmembrane domain fused to the C-terminal Venus fragment) (human) (UniProt P33151); assay: split reporter (BiFC, NanoBiT); Venus BiFC (VN155 I152L with VC155 A206K) in live HEK293T cells, 0.5 ug of each construct, confocal microscopy 24 h after transfection; mean BiFC intensity per cell or BiFC/DeepRed ratio, compared with control pairings
bFos BiFC construct = target: T1, bFos BiFC construct (UniProt P01100 118-210); assay: split reporter (BiFC, NanoBiT); validation of the quantitative BiFC analysis with bJun/bFos (positive) and bJun/bΔFos (negative); BiFC/DeepRed ratio and mean BiFC intensity; details in S1-S4 Figs; conditions: partners not purified
T1 construct: transcription factor Fos, the construct called bFos
T1 sequence (P01100 118-210): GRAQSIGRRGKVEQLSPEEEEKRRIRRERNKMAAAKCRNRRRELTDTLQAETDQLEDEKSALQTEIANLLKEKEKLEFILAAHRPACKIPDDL

VE-cadherin-VC (VE-cadherin ectodomain and transmembrane domain fused to the C-terminal Venus fragment) (human), sequence (P33151 26-625): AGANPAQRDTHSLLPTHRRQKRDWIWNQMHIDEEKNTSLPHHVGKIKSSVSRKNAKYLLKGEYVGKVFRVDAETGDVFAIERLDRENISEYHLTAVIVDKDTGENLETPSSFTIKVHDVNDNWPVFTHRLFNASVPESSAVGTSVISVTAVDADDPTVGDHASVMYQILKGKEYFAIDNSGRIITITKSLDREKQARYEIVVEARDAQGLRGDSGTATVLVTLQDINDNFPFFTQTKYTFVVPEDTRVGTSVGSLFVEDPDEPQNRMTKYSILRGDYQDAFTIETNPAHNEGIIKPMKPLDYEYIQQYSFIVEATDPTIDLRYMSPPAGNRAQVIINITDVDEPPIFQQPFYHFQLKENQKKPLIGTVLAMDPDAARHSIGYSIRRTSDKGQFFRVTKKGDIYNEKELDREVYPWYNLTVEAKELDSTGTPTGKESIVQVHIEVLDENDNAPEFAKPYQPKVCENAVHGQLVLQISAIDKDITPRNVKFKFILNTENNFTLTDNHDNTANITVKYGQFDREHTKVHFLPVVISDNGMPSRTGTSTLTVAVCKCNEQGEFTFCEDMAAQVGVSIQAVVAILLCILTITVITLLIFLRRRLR

Molecule	S/N (median BiFC/DeepRed ratio over that of the negative pairing) [1]	fold mean BiFC value over controls [1]	S/N (median BiFC/DeepRed ratio of the positive pairing over that of the negative pairing bJun/bΔFos) (bFos BiFC construct)	fold difference in mean BiFC fluorescence intensity over bJun/bΔFos (bFos BiFC construct)
VE-PTP-VN (vascular endothelial protein tyrosine phosphatase, ectodomain and transmembrane domain, fused to the N-terminal Venus fragment) (domain or fragment)	6.5	2 to 3 fold	–	–
B1	–	–	7.7	6 fold
